B1: chr1_185 oligo 2 (dsDNA)
DNA 1: AGAGAGAAAAAAAACTAAAGTTACAGTAGCTTCATGTTGTAGATGGGTATATACCGCT
DNA 2: AGCGGTATATACCCATCTACAACATGAAGCTACTGTAACTTTAGTTTTTTTTCTCTCT
B2: chr1_185 oligo 1 (dsDNA)
DNA 1: TCCCAGGACTATGAGTTTAGAGAGAAAAAAAACTAAAGTTACAGTAGCTTCATGTTG
DNA 2: CAACATGAAGCTACTGTAACTTTAGTTTTTTTTCTCTCTAAACTCATAGTCCTGGGA
B3: chr1_158 oligo 1 (dsDNA)
DNA 1: CGTCTGCTCTCTGTAGGAAGTGCTCCATGGACAGTAGCTTCTGCCTTTCCTT
DNA 2: AAGGAAAGGCAGAAGCTACTGTCCATGGAGCACTTCCTACAGAGAGCAGACG

The values that follow come from paper PMC4287450, “PRDM9 Drives Evolutionary Erosion of Hotspots in Mus musculus through Haplotype-Specific Initiation of Meiotic Recombination”.

The data set deals with PRDM9Dom2 (Mus musculus domesticus (B6 allele), UniProt Q96EQ9 513-843). The data set can be described thus: competition; 20x unlabeled vs labeled CAST DNA; EMSA as in Billings et al. 2013 (buffer, pH, temperature not given); unlabeled competitor dsDNA at 20x labeled DNA. The note with it: protein: recombinant; blunt.
Sequence of PRDM9Dom2 (Q96EQ9 513-843): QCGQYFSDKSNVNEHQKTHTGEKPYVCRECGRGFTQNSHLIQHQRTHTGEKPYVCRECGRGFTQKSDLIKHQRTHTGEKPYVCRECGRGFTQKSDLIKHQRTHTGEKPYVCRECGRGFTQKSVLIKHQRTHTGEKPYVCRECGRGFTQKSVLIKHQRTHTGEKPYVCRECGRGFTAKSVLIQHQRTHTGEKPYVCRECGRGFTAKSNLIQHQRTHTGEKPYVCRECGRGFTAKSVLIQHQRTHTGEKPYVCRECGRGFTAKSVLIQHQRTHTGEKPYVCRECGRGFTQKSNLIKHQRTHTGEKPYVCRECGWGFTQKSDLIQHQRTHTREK
Regarding B1, the binding result is reported as “binds”.
With B2 the entry was “binds”; with B3, “binds”.
